Each block holds one binder with its values, some of them ahead of it.
B4: His-tagged IκBζ(404–718) (domain or fragment, human, UniProt Q9BYH8 404-718, looked up)
chain: MGNPMNTTQLGKSLFQWQVEQEESKLANISQDQFLSKDADGDTFLHIAVAQGRRALSYVLARKMNALHMLDIKEHNGQSAFQVAVAANQHLIVQDLVNIGAQVNTTDCWGRTPLHVCAEKGHSQVLQAIQKGAVGSNQFVDLEATNYDGLTPLHCAVIAHNAVVHELQRNQQPHSPEVQELLLKNKSLVDTIKCLIQMGAAVEAKDRKSGRTALHLAAEEANLELIRLFLELPSCLSFVNAKAYNGNTALHVAASLQYRLTQLDAVRLLMRKGADPSTRNLENEQPVHLVPDGPVGEQIRRILKGKSIQQRAPPY

How the values were obtained:
crystal structure = target: the molecule itself; experiment: crystal structure
His-tagged IκBζ(404–718) = target: B4; experiment: SPR
[1] = target: NF-kB p50;GST-IkBzeta ankyrin repeat domain (Mus musculus;Homo sapiens, UniProt P25799;Q9BYH8 1-376;404-718, |); experiment: EMSA supershift
p50(1–376) homodimer = target: T1, p50(1–376) homodimer (murine, UniProt P25799 1-376); experiment: native gel or EMSA
T1 sequence (looked up): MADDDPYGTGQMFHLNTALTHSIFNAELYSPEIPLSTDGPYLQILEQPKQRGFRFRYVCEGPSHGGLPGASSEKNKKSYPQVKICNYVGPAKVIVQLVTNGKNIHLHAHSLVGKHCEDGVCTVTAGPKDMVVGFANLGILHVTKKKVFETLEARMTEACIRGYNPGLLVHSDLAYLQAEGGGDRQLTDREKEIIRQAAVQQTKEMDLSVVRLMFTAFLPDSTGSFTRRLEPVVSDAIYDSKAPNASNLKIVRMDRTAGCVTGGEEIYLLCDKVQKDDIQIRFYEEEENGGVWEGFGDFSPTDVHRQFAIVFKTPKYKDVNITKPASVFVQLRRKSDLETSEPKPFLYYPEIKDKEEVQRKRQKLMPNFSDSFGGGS

[2] = target: p50(1–376):RelA(1–325) heterodimer (murine, UniProt P25799 1-376; Q04207 1-325); experiment: native gel or EMSA
p50(39–363) homodimer = target: T2, p50(39–363) homodimer (murine, UniProt P25799 39-363); experiment: SPR
T2 sequence (looked up): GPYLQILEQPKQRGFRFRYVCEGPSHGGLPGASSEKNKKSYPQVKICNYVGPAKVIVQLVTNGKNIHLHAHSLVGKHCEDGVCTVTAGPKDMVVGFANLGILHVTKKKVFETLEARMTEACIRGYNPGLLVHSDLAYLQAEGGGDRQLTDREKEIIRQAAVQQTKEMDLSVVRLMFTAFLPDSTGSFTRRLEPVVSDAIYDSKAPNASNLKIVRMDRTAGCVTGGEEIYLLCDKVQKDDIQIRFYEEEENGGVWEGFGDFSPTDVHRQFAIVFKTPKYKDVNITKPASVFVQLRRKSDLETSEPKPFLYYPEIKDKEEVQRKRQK

p50(1–435) homodimer = target: T3, p50(1–435) homodimer (murine, UniProt P25799 1-435); experiment: SPR
T3 sequence (looked up): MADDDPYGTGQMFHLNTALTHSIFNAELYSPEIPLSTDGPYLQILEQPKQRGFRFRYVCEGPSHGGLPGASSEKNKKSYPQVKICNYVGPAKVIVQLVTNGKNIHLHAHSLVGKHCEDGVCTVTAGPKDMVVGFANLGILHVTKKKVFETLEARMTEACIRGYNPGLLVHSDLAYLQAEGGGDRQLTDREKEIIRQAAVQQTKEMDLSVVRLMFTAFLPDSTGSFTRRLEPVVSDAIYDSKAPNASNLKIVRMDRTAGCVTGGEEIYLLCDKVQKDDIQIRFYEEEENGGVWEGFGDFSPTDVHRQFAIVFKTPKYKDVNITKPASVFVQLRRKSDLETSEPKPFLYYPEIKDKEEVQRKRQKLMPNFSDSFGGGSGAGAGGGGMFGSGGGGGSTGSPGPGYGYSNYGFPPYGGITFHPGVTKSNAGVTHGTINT

Chain of p50(1–376):RelA(1–325) heterodimer (Q04207 1-325, one chain of several): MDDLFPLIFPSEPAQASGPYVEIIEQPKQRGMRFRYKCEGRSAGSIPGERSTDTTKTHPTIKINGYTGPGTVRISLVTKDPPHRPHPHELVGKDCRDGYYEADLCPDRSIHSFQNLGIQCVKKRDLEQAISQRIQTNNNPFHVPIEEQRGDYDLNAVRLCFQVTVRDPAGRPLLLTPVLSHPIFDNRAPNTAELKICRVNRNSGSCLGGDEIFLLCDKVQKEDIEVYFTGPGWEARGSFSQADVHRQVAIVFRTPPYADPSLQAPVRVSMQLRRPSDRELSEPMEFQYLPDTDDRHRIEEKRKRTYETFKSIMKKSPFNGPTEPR

Kd (His-tagged IκBζ(404–718)): 0.0912 nM
B1: murine p50 dimerization domain homodimer (residues 245–376) (domain or fragment, UniProt P25799 245-376, looked up)
chain: ASNLKIVRMDRTAGCVTGGEEIYLLCDKVQKDDIQIRFYEEEENGGVWEGFGDFSPTDVHRQFAIVFKTPKYKDVNITKPASVFVQLRRKSDLETSEPKPFLYYPEIKDKEEVQRKRQKLMPNFSDSFGGGS
binding result (crystal structure): binds

B2: human IL-6 kB DNA probe (dsDNA)
DNA 1: AGATTTATCAAATGTGGGATTTTCCCATGAGTCTCAATATT
DNA 2: AATATTGAGACTCATGGGAAAATCCCACATTTGATAAATCT
binding result [1]: binds

binding result (p50(1–376) homodimer): binds
binding result [2]: binds
B3: GST-IκBζ(404–718) (domain or fragment, human, UniProt Q9BYH8 404-718, looked up)
chain: MGNPMNTTQLGKSLFQWQVEQEESKLANISQDQFLSKDADGDTFLHIAVAQGRRALSYVLARKMNALHMLDIKEHNGQSAFQVAVAANQHLIVQDLVNIGAQVNTTDCWGRTPLHVCAEKGHSQVLQAIQKGAVGSNQFVDLEATNYDGLTPLHCAVIAHNAVVHELQRNQQPHSPEVQELLLKNKSLVDTIKCLIQMGAAVEAKDRKSGRTALHLAAEEANLELIRLFLELPSCLSFVNAKAYNGNTALHVAASLQYRLTQLDAVRLLMRKGADPSTRNLENEQPVHLVPDGPVGEQIRRILKGKSIQQRAPPY

Binder: B4
binding result (p50(39–363) homodimer): binds
binding result (p50(1–435) homodimer): binds

Kd (His-tagged IκBζ(404–718)): 0.615 nM
B5: RelA(191–290)–p50(350–376) chimeric fusion protein (other, murine, UniProt Q04207 191-290, looked up)
chain: TAELKICRVNRNSGSCLGGDEIFLLCDKVQKEDIEVYFTGPGWEARGSFSQADVHRQVAIVFRTPPYADPSLQAPVRVSMQLRRPSDRELSEPMEFQYLPEIKDKEEVQRKRQKLMPNFSDSFGGGS
